Patent publication US20160159928A1 (published 2016)

T1: CXCR1 (UniProt P25024 1-350, limits assumed)
T1 construct: whole, on cells; also called CXCR1 receptor; CXCR1-U2OS
T1 sequence (looked up): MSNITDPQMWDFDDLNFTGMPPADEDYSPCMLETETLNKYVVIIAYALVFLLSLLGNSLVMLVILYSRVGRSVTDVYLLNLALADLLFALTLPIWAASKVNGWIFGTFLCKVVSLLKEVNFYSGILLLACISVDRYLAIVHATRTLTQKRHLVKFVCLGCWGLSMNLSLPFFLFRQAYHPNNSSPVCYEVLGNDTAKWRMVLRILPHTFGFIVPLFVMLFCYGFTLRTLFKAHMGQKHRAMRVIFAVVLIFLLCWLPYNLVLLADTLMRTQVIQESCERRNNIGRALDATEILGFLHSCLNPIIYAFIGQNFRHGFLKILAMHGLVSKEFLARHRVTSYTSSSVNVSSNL

B1: VH4-34+CDR3-IL8_CDR1 Cow IgG (BLV1H12 light chain) (antibody)
VH: QVQLQQWGAGLLKPSETLSLTCTASGFSLSDKAVGWIRQPPGKGLEWIGEINHSGSTNYNPSLKSRVTISVDTSKNQFSLKLSSVTAADTAVYYCTSVHQETKKYQSPRSAKELRCQCIKTYSKPFHPKFIKELRVIESGPHCANTEIIVKLSDGRELCLDPKENWVQRVVEKFLKRAENSGSGSYTYNYEWHVDVWGQGLLVTVSSAS
light: not shown
notes: also called VH4-34 + CDR3-IL8 + Cow CDR1
B2: VH4-34+CDR3-IL8_CDR1 G31D, Y32K IgG (BLV1H12 light chain) (antibody)
VH: QVQLQQWGAGLLKPSETLSLTCAVYGGSFSDKYWSWIRQPPGKGLEWIGEINHSGSTNYNPSLKSRVTISVDTSKNQFSLKLSSVTAADTAVYYCTSVHQETKKYQSPRSAKELRCQCIKTYSKPFHPKFIKELRVIESGPHCANTEIIVKLSDGRELCLDPKENWVQRVVEKFLKRAENSGSGSYTYNYEWHVDVWGQGLLVTVSSAS
light: not shown
notes: also called VH4-34 + CDR3-IL8 + E31D, Y32K
B3: VH4-4+CDR3-IL8 IgG (antibody)
VH: QVQLQESGPGLVKPSETLSLTCTVSGGSISSYYWSWIRQPAGKGLEWIGRIYTSGSTNYNPSLKSRVTMSVDTSKNQFSLKLSSVTAADTAVYYCTSVHQETKKYQSPRSAKELRCQCIKTYSKPFHPKFIKELRVIESGPHCANTEIIVKLSDGRELCLDPKENWVQRVVEKFLKRAENSGSGSYTYNYEWHVDVWGQGLLVTVSSAS
light: not shown
notes: also called VH4-4 BLVCDR3IL8
B4: VH1-69+CDR3-IL8 IgG (antibody)
VH: QVQLVQSGAEVKKPGSSVKVSCKASGGTFSSYAISWVRQAPGQGLEWMGGIIPIFGTANYAQKFQGRVTITADKSTSTAYMELSSLRSEDTAVYYCTSVHQETKKYQSPRSAKELRCQCIKTYSKPFHPKFIKELRVIESGPHCANTEIIVKLSDGRELCLDPKENWVQRVVEKFLKRAENSGSGSYTYNYEWHVDVWGQGLLVTVSSAS
light: not shown
notes: also called VH1-69 BLVCDR3IL8
B5: VH3-23+CDR3-IL8 IgG (antibody)
VH: EVQLLESGGGLVQPGGSLRLSCAASGFTFSSYAMSWVRQAPGKGLEWVSAISGSGGSTYYADSVKGRFTISRDNSKNTLYLQMNSLRAEDTAVYYCTSVHQETKKYQSPRSAKELRCQCIKTYSKPFHPKFIKELRVIESGPHCANTEIIVKLSDGRELCLDPKENWVQRVVEKFLKRAENSGSGSYTYNYEWHVDVWGQGLLVTVSSAS
light: not shown
notes: also called VH3-23 BLVCDR3IL8
B6: VH4-34+CDR3-IL8_CDR1 Cow_CDR2 Cow with light chain V1-51 S2A, T5N, P8S, A12G, A13S, P14L (antibody)
VH: QVQLQQWGAGLLKPSETLSLTCTASGFSLSDKAVGWIRQPPGKGLEWLGSIDTGGNTGYNPSLKSRVTISVDTSKNQFSLKLSSVTAADTAVYYCTSVHQETKKYQSPRSAKELRCQCIKTYSKPFHPKFIKELRVIESGPHCANTEIIVKLSDGRELCLDPKENWVQRVVEKFLKRAENSGSGSYTYNYEWHVDVWGQGLLVTVSSAS
light: QAVLNQPSSVSGSLGQKVTISCSGSSSNIGNNYVSWYQQLPGTAPKLLIYDNNKRPSGIPDRFSGSKSGTSATLGITGLQTGDEADYYCASAEDSSSNAVFGSGTTLTVLGQPKAAPSVTLFPPSSEELQANKATLVCLISDFYPGAVTVAWKADSSPVKAGVETTTPSKQSNNKYAASSYLSLTPEQWKSHRSYSCQVTHEGSTVEKTVAPTECS
notes: also called BID 36; VH4-34 MutB IL-8 CDR1cow CDR2cow
B7: VH4-34+CDR3-IL8_CDR1 Cow with light chain V1-51 CDR2 DNN to GDT (antibody)
VH: QVQLQQWGAGLLKPSETLSLTCTASGFSLSDKAVGWIRQPPGKGLEWIGEINHSGSTNYNPSLKSRVTISVDTSKNQFSLKLSSVTAADTAVYYCTSVHQETKKYQSPRSAKELRCQCIKTYSKPFHPKFIKELRVIESGPHCANTEIIVKLSDGRELCLDPKENWVQRVVEKFLKRAENSGSGSYTYNYEWHVDVWGQGLLVTVSSAS
light: QSVLTQPPSVSAAPGQKVTISCSGSSSNIGNNYVSWYQQLPGTAPKLLIYGDTKRPSGIPDRFSGSKSGTSATLGITGLQTGDEADYYCASAEDSSSNAVFGSGTTLTVLGQPKAAPSVTLFPPSSEELQANKATLVCLISDFYPGAVTVAWKADSSPVKAGVETTTPSKQSNNKYAASSYLSLTPEQWKSHRSYSCQVTHEGSTVEKTVAPTECS
B8: VH4-34+CDR3-IL8_CDR1 Cow with light chain V1-51 S2A, T5N, P8S, A12G, A13S, P14L & DNN to GDT (antibody)
VH: QVQLQQWGAGLLKPSETLSLTCTASGFSLSDKAVGWIRQPPGKGLEWIGEINHSGSTNYNPSLKSRVTISVDTSKNQFSLKLSSVTAADTAVYYCTSVHQETKKYQSPRSAKELRCQCIKTYSKPFHPKFIKELRVIESGPHCANTEIIVKLSDGRELCLDPKENWVQRVVEKFLKRAENSGSGSYTYNYEWHVDVWGQGLLVTVSSAS
light: QAVLNQPSSVSGSLGQKVTISCSGSSSNIGNNYVSWYQQLPGTAPKLLIYGDTKRPSGIPDRFSGSKSGTSATLGITGLQTGDEADYYCASAEDSSSNAVFGSGTTLTVLGQPKAAPSVTLFPPSSEELQANKATLVCLISDFYPGAVTVAWKADSSPVKAGVETTTPSKQSNNKYAASSYLSLTPEQWKSHRSYSCQVTHEGSTVEKTVAPTECS
B9: VH4-34+CDR3-IL8_CDR1 Cow with light chain V1-51 CDR2 DNNKRP to GDTSRA (antibody)
VH: QVQLQQWGAGLLKPSETLSLTCTASGFSLSDKAVGWIRQPPGKGLEWIGEINHSGSTNYNPSLKSRVTISVDTSKNQFSLKLSSVTAADTAVYYCTSVHQETKKYQSPRSAKELRCQCIKTYSKPFHPKFIKELRVIESGPHCANTEIIVKLSDGRELCLDPKENWVQRVVEKFLKRAENSGSGSYTYNYEWHVDVWGQGLLVTVSSAS
light: QSVLTQPPSVSAAPGQKVTISCSGSSSNIGNNYVSWYQQLPGTAPKLLIYGDTSRASGIPDRFSGSKSGTSATLGITGLQTGDEADYYCASAEDSSSNAVFGSGTTLTVLGQPKAAPSVTLFPPSSEELQANKATLVCLISDFYPGAVTVAWKADSSPVKAGVETTTPSKQSNNKYAASSYLSLTPEQWKSHRSYSCQVTHEGSTVEKTVAPTECS
B10: VH4-34+CDR3-IL8_CDR1 Cow_CDR2 Cow with light chain V1-51 CDR1 I29V, N32G (antibody)
VH: QVQLQQWGAGLLKPSETLSLTCTASGFSLSDKAVGWIRQPPGKGLEWLGSIDTGGNTGYNPSLKSRVTISVDTSKNQFSLKLSSVTAADTAVYYCTSVHQETKKYQSPRSAKELRCQCIKTYSKPFHPKFIKELRVIESGPHCANTEIIVKLSDGRELCLDPKENWVQRVVEKFLKRAENSGSGSYTYNYEWHVDVWGQGLLVTVSSAS
light: QSVLTQPPSVSAAPGQKVTISCSGSSSNVGNGYVSWYQQLPGTAPKLLIYDNNKRPSGIPDRFSGSKSGTSATLGITGLQTGDEADYYCASAEDSSSNAVFGSGTTLTVLGQPKAAPSVTLFPPSSEELQANKATLVCLISDFYPGAVTVAWKADSSPVKAGVETTTPSKQSNNKYAASSYLSLTPEQWKSHRSYSCQVTHEGSTVEKTVAPTECS
B11: VH4-34+CDR3-IL8_CDR1 Cow_CDR2 Cow with light chain V1-51 CDR2 DNN to GDT (antibody)
VH: QVQLQQWGAGLLKPSETLSLTCTASGFSLSDKAVGWIRQPPGKGLEWLGSIDTGGNTGYNPSLKSRVTISVDTSKNQFSLKLSSVTAADTAVYYCTSVHQETKKYQSPRSAKELRCQCIKTYSKPFHPKFIKELRVIESGPHCANTEIIVKLSDGRELCLDPKENWVQRVVEKFLKRAENSGSGSYTYNYEWHVDVWGQGLLVTVSSAS
light: QSVLTQPPSVSAAPGQKVTISCSGSSSNIGNNYVSWYQQLPGTAPKLLIYGDTKRPSGIPDRFSGSKSGTSATLGITGLQTGDEADYYCASAEDSSSNAVFGSGTTLTVLGQPKAAPSVTLFPPSSEELQANKATLVCLISDFYPGAVTVAWKADSSPVKAGVETTTPSKQSNNKYAASSYLSLTPEQWKSHRSYSCQVTHEGSTVEKTVAPTECS
B12: VH4-34+CDR3-IL8_CDR1 Cow_CDR2 Cow with light chain V1-51 CDR2 DNNKRP to GDTSRA (antibody)
VH: QVQLQQWGAGLLKPSETLSLTCTASGFSLSDKAVGWIRQPPGKGLEWLGSIDTGGNTGYNPSLKSRVTISVDTSKNQFSLKLSSVTAADTAVYYCTSVHQETKKYQSPRSAKELRCQCIKTYSKPFHPKFIKELRVIESGPHCANTEIIVKLSDGRELCLDPKENWVQRVVEKFLKRAENSGSGSYTYNYEWHVDVWGQGLLVTVSSAS
light: QSVLTQPPSVSAAPGQKVTISCSGSSSNIGNNYVSWYQQLPGTAPKLLIYGDTSRASGIPDRFSGSKSGTSATLGITGLQTGDEADYYCASAEDSSSNAVFGSGTTLTVLGQPKAAPSVTLFPPSSEELQANKATLVCLISDFYPGAVTVAWKADSSPVKAGVETTTPSKQSNNKYAASSYLSLTPEQWKSHRSYSCQVTHEGSTVEKTVAPTECS
B13: VH4-34+CDR3-IL8_CDR1 Cow with light chain V1-51 S2A, T5N, P8S, A12G, A13S, P14L (antibody)
VH: QVQLQQWGAGLLKPSETLSLTCTASGFSLSDKAVGWIRQPPGKGLEWIGEINHSGSTNYNPSLKSRVTISVDTSKNQFSLKLSSVTAADTAVYYCTSVHQETKKYQSPRSAKELRCQCIKTYSKPFHPKFIKELRVIESGPHCANTEIIVKLSDGRELCLDPKENWVQRVVEKFLKRAENSGSGSYTYNYEWHVDVWGQGLLVTVSSAS
light: QAVLNQPSSVSGSLGQKVTISCSGSSSNIGNNYVSWYQQLPGTAPKLLIYDNNKRPSGIPDRFSGSKSGTSATLGITGLQTGDEADYYCASAEDSSSNAVFGSGTTLTVLGQPKAAPSVTLFPPSSEELQANKATLVCLISDFYPGAVTVAWKADSSPVKAGVETTTPSKQSNNKYAASSYLSLTPEQWKSHRSYSCQVTHEGSTVEKTVAPTECS
notes: also called BID 34
B14: VH4-34+CDR3-IL8_CDR1 Cow with light chain V1-51 CDR1 I29V, N32G (antibody)
VH: QVQLQQWGAGLLKPSETLSLTCTASGFSLSDKAVGWIRQPPGKGLEWIGEINHSGSTNYNPSLKSRVTISVDTSKNQFSLKLSSVTAADTAVYYCTSVHQETKKYQSPRSAKELRCQCIKTYSKPFHPKFIKELRVIESGPHCANTEIIVKLSDGRELCLDPKENWVQRVVEKFLKRAENSGSGSYTYNYEWHVDVWGQGLLVTVSSAS
light: QSVLTQPPSVSAAPGQKVTISCSGSSSNVGNGYVSWYQQLPGTAPKLLIYDNNKRPSGIPDRFSGSKSGTSATLGITGLQTGDEADYYCASAEDSSSNAVFGSGTTLTVLGQPKAAPSVTLFPPSSEELQANKATLVCLISDFYPGAVTVAWKADSSPVKAGVETTTPSKQSNNKYAASSYLSLTPEQWKSHRSYSCQVTHEGSTVEKTVAPTECS

Biological target: T1, CXCR1
Experiment: flow cytometry; fluorescence on CXCR1-U2OS over parental U2OS cells
Procedure: (§1) Briefly, a cell line expressing functionally validated CXCR1 derived from U2OS cells was obtained from DiscoveRx and cultured per manufacturer's instructions (Cat#93-0226C3, DiscoveRx Corporation, Freemont, Calif.). The parental cell line U2OS was obtained from ATCC and cultured under the same conditions as the CXCR1 cells. Cell culture supernatants were then tested for binding to cells by flow cytometry. The adherent U2OS or CXCR1-U2OS cells were dissociated with Accutase (Innovative Cell Technologies, Inc., San Diego, Calif.), neutralized with an equal volume of media containing 10% serum, centrifuged at 1000 g, and resuspended in PBS with 2% BSA. Next, cells were dispensed into microtiter plates to achieve between 30,000 to 300,000 cells per well, centrifuged again, and resuspended in cell culture supernatant containing expressed IgG, or a dilution of IgG-containing cell culture supernatant. A fluorescent-conjugated anti-Human Fc antibody was used to detect binding of the expressed antibody to cells.

Binder	FACS CXCR1/Parental Ratio
B1	2.1
B2	8.1

Biological target: T1, CXCR1
Experiment: as above
Remark: another data set of the same source
Procedure: as §1

Binder	Ratio of CXCR1/Parental
B3	3.1
B4	4
B5	2.7

Biological target: T1, CXCR1
Experiment: flow cytometry, IgG 10 nM, 2% BSA in PBS plus 2 ug/ml heparin sulfate
Procedure: Transfections and ELISA were carried out as described above, and flow cytometry was used to evaluate CXCR1 binding specificity as previously described, with the modification that cells were resuspended in 2% BSA in PBS plus 2 ug/ml Heparin sulfate, and IgGs were normalized to 10 nM during incubation on cells.

Binder	CXCR1 specificity (CXCR1/parental ratio)
B6	12.2
B7	5.6
B8	6.8
B9	8
B10	11.8
B11	16.7
B12	6.9
B13	4.7
B14	8.9
